Patent publication US20120122783A1 (INDIANA UNIVERSITY RESEARCH AND TECHOLOGY, published 2012)
Several values for one entry are separate records, joined by “and”; a condition that tells them apart may be missing. Equal entries are not always repeated. Square brackets hold non-standard residues; d marks the D form. Primed or numbered codes have the meaning given here. Ends that are not written are not given here. mPEG‑MAL 20 kDa = maleimido methoxyPEG of about 20 kDa, linked to the Cys sulfur; mPEG‑MAL 5 kDa = maleimido methoxyPEG of about 5 kDa, linked to the Cys sulfur; Abu(4-SO3H) = N[C@@H](CCS(=O)(=O)O)C(=O)O; PhLac = O=C(O)[C@@H](O)Cc1ccccc1; Aad = N[C@@H](CCCC(=O)O)C(=O)O; CH2CH2COOH′ = not defined here

target: T1, human glucagon receptor (human, UniProt P47871 26-477); assay: cell-based or functional assay
T1 sequence (P47871 26-477): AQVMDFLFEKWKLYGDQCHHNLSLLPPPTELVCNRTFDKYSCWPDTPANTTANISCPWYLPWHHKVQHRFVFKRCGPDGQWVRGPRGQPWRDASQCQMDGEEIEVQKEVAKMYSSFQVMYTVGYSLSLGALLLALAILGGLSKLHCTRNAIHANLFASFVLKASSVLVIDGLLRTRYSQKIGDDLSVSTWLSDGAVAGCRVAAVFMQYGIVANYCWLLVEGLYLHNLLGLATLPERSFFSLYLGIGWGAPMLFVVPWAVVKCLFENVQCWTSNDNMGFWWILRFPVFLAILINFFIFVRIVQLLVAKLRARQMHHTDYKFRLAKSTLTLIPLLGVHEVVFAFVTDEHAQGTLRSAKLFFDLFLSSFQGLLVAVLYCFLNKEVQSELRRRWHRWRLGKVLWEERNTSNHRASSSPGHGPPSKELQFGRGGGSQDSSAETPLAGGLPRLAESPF

Molecule	IC50 (nM) (cAMP, inhibit 0.2 mM Glucagon)	cAMP Induction EC50
[d-Cys5(20kDaPEG), E9]Glucagon(aa5-29) -NH2 (peptide)	14800 nM	–
Oxyntomodulin (from UniProt P01275 53-89) (peptide)	–	3.25 nM
Oxyntomodulin C24 PEG 20 K (from UniProt P01275 53-89) (peptide)	–	0.97 nM
Oxyntomodulin C24 (from UniProt P01275 53-89) (peptide)	–	2.54 nM

target: T1, human glucagon receptor; assay: cell-based or functional assay; remark: another data set of the same source

Molecule	cAMP IC50
FTSDYSKYLDSRRAQDFVQWLMNT-NH2 [Glucagon(aa6-29)-NH2]	346 nM
FTSC(CH2COOH)YSKYLDSRRAQDFVQWLMNT-NH2 [[(CSA-1)^9]Glucagon(aa6-29)-NH2]	101 nM
FTSC(CH2CH2COOH′)YSKYLDSRRAQDFVQWLMNT-NH2 [[(CSA-2)^9]Glucagon(aa6-29)-NH2]	116 nM
FTSKYSKYLDSRRAQDFVQWLMNT-NH2 [[Lys^9]Glucagon(aa6-29)-NH2]	398 nM
FTS[Aad]YSKYLDSRRAQDFVQWLMNT-NH2 (N-terminus assumed; SMILES CSCC[C@H](NC(=O)[C@H](CC(C)C)NC(=O)[C@H](Cc1c[nH]c2ccccc12)NC(=O)[C@H](CCC(N)=O)NC(=O)[C@@H](NC(=O)[C@H](Cc1ccccc1)NC(=O)[C@H](CC(=O)O)NC(=O)[C@H](CCC(N)=O)NC(=O)[C@H](C)NC(=O)[C@H](CCCNC(=N)N)NC(=O)[C@H](CCCNC(=N)N)NC(=O)[C@H](CO)NC(=O)[C@H](CC(=O)O)NC(=O)[C@H](CC(C)C)NC(=O)[C@H](Cc1ccc(O)cc1)NC(=O)[C@H](CCCCN)NC(=O)[C@H](CO)NC(=O)[C@H](Cc1ccc(O)cc1)NC(=O)[C@H](CCCC(=O)O)NC(=O)[C@H](CO)NC(=O)[C@@H](NC(=O)[C@@H](N)Cc1ccccc1)[C@@H](C)O)C(C)C)C(=O)N[C@@H](CC(N)=O)C(=O)N[C@H](C(N)=O)[C@@H](C)O) [[hGlu^9]Glucagon(aa6-29)-NH2]	472 nM

target: T1, human glucagon receptor; assay: cell-based or functional assay; remark: another data set of the same source

Molecule	IC50 (nM) (cAMP, inhibit Glucagon) 0.1 nM or 0.2 nM
[PhLac]TSDYSKYLDSRRAQDFVQWLMNT-OH (N-terminus assumed; SMILES CSCC[C@H](NC(=O)[C@H](CC(C)C)NC(=O)[C@H](Cc1c[nH]c2ccccc12)NC(=O)[C@H](CCC(N)=O)NC(=O)[C@@H](NC(=O)[C@H](Cc1ccccc1)NC(=O)[C@H](CC(=O)O)NC(=O)[C@H](CCC(N)=O)NC(=O)[C@H](C)NC(=O)[C@H](CCCNC(=N)N)NC(=O)[C@H](CCCNC(=N)N)NC(=O)[C@H](CO)NC(=O)[C@H](CC(=O)O)NC(=O)[C@H](CC(C)C)NC(=O)[C@H](Cc1ccc(O)cc1)NC(=O)[C@H](CCCCN)NC(=O)[C@H](CO)NC(=O)[C@H](Cc1ccc(O)cc1)NC(=O)[C@H](CC(=O)O)NC(=O)[C@H](CO)NC(=O)[C@@H](NC(=O)[C@@H](O)Cc1ccccc1)[C@@H](C)O)C(C)C)C(=O)N[C@@H](CC(N)=O)C(=O)N[C@H](C(=O)O)[C@@H](C)O) [[PLA6, D9]Glucagon(aa6-29)-COOH]	13.2 nM
[PhLac]TSDYSKYLDSRRAQDFVQWLMNT-NH2 (N-terminus assumed; SMILES CSCC[C@H](NC(=O)[C@H](CC(C)C)NC(=O)[C@H](Cc1c[nH]c2ccccc12)NC(=O)[C@H](CCC(N)=O)NC(=O)[C@@H](NC(=O)[C@H](Cc1ccccc1)NC(=O)[C@H](CC(=O)O)NC(=O)[C@H](CCC(N)=O)NC(=O)[C@H](C)NC(=O)[C@H](CCCNC(=N)N)NC(=O)[C@H](CCCNC(=N)N)NC(=O)[C@H](CO)NC(=O)[C@H](CC(=O)O)NC(=O)[C@H](CC(C)C)NC(=O)[C@H](Cc1ccc(O)cc1)NC(=O)[C@H](CCCCN)NC(=O)[C@H](CO)NC(=O)[C@H](Cc1ccc(O)cc1)NC(=O)[C@H](CC(=O)O)NC(=O)[C@H](CO)NC(=O)[C@@H](NC(=O)[C@@H](O)Cc1ccccc1)[C@@H](C)O)C(C)C)C(=O)N[C@@H](CC(N)=O)C(=O)N[C@H](C(N)=O)[C@@H](C)O) [[PLA6, D9]Glucagon(aa6-29)-NH2]	6.9 nM

target: T1, human glucagon receptor; assay: cell-based or functional assay; remark: another data set of the same source

Molecule	cAMP Induction EC50	cAMP Inhibition IC50
SQGTFTSEYSKYLDSRRAQDFVQFLLNT-NH2 [[desHis^1, Glu^9, Phe^25, Leu^27]Glucagon-NH2]	81 nM	–
SQLTFTSEYSKYLDSRRAQDFVQWLMNT-NH2 [[desHis^1, Leu^4, Glu^9] Glucagon-NH2]	318 nM	102 nM
SQGTFTS[Abu(4-SO3H)]YSKYLDSRRAQDFVQFLLNT-NH2 (N-terminus assumed; SMILES CC(C)C[C@H](NC(=O)[C@H](Cc1ccc(O)cc1)NC(=O)[C@H](CCCCN)NC(=O)[C@H](CO)NC(=O)[C@H](Cc1ccc(O)cc1)NC(=O)[C@H](CCS(=O)(=O)O)NC(=O)[C@H](CO)NC(=O)[C@@H](NC(=O)[C@H](Cc1ccccc1)NC(=O)[C@@H](NC(=O)CNC(=O)[C@H](CCC(N)=O)NC(=O)[C@@H](N)CO)[C@@H](C)O)[C@@H](C)O)C(=O)N[C@@H](CC(=O)O)C(=O)N[C@@H](CO)C(=O)N[C@@H](CCCNC(=N)N)C(=O)N[C@@H](CCCNC(=N)N)C(=O)N[C@@H](C)C(=O)N[C@@H](CCC(N)=O)C(=O)N[C@@H](CC(=O)O)C(=O)N[C@@H](Cc1ccccc1)C(=O)N[C@H](C(=O)N[C@@H](CCC(N)=O)C(=O)N[C@@H](Cc1ccccc1)C(=O)N[C@@H](CC(C)C)C(=O)N[C@@H](CC(C)C)C(=O)N[C@@H](CC(N)=O)C(=O)N[C@H](C(N)=O)[C@@H](C)O)C(C)C) [[desHis^1, hCys^9(SO3-), Phe^25, Leu^27] Glucagon-NH2]	430 nM	–
SQGTTS[Abu(4-SO3H)]YSKYLDSRRAQDFVQFLLNT-NH2 (N-terminus assumed; SMILES CC(C)C[C@H](NC(=O)[C@H](Cc1ccc(O)cc1)NC(=O)[C@H](CCCCN)NC(=O)[C@H](CO)NC(=O)[C@H](Cc1ccc(O)cc1)NC(=O)[C@H](CCS(=O)(=O)O)NC(=O)[C@H](CO)NC(=O)[C@@H](NC(=O)[C@@H](NC(=O)CNC(=O)[C@H](CCC(N)=O)NC(=O)[C@@H](N)CO)[C@@H](C)O)[C@@H](C)O)C(=O)N[C@@H](CC(=O)O)C(=O)N[C@@H](CO)C(=O)N[C@@H](CCCNC(=N)N)C(=O)N[C@@H](CCCNC(=N)N)C(=O)N[C@@H](C)C(=O)N[C@@H](CCC(N)=O)C(=O)N[C@@H](CC(=O)O)C(=O)N[C@@H](Cc1ccccc1)C(=O)N[C@H](C(=O)N[C@@H](CCC(N)=O)C(=O)N[C@@H](Cc1ccccc1)C(=O)N[C@@H](CC(C)C)C(=O)N[C@@H](CC(C)C)C(=O)N[C@@H](CC(N)=O)C(=O)N[C@H](C(N)=O)[C@@H](C)O)C(C)C) [[desHis^1, desPhe^6, hCys^9(SO3-), Phe^25, Leu^27] Glucagon-NH2]	3210 nM	9220 nM
SQLTFTS[Abu(4-SO3H)]YSKYLDSRRAQDFVQFLLNT-NH2 (N-terminus assumed; SMILES CC(C)C[C@H](NC(=O)[C@H](Cc1ccc(O)cc1)NC(=O)[C@H](CCCCN)NC(=O)[C@H](CO)NC(=O)[C@H](Cc1ccc(O)cc1)NC(=O)[C@H](CCS(=O)(=O)O)NC(=O)[C@H](CO)NC(=O)[C@@H](NC(=O)[C@H](Cc1ccccc1)NC(=O)[C@@H](NC(=O)[C@H](CC(C)C)NC(=O)[C@H](CCC(N)=O)NC(=O)[C@@H](N)CO)[C@@H](C)O)[C@@H](C)O)C(=O)N[C@@H](CC(=O)O)C(=O)N[C@@H](CO)C(=O)N[C@@H](CCCNC(=N)N)C(=O)N[C@@H](CCCNC(=N)N)C(=O)N[C@@H](C)C(=O)N[C@@H](CCC(N)=O)C(=O)N[C@@H](CC(=O)O)C(=O)N[C@@H](Cc1ccccc1)C(=O)N[C@H](C(=O)N[C@@H](CCC(N)=O)C(=O)N[C@@H](Cc1ccccc1)C(=O)N[C@@H](CC(C)C)C(=O)N[C@@H](CC(C)C)C(=O)N[C@@H](CC(N)=O)C(=O)N[C@H](C(N)=O)[C@@H](C)O)C(C)C) [[desHis^1, Leu^4, hCys^9(SO3-), Phe^25, Leu^27] Glucagon-NH2]	1610 nM	4460 nM

target: T1, human glucagon receptor; assay: cell-based or functional assay; remark: another data set of the same source

Molecule	cAMP (I/A)50, inhibition index
FTSDYSKYLDSRRAQDFVQWLMNT-NH2 [Glucagon(aa6-29)-NH2]	1730 ratio
FTSC(CH2COOH)YSKYLDSRRAQDFVQWLMNT-NH2 [[(CSA-1)^9]Glucagon(aa6-29)-NH2]	506 ratio
FTSC(CH2CH2COOH′)YSKYLDSRRAQDFVQWLMNT-NH2 [[(CSA-2)^9]Glucagon(aa6-29)-NH2]	580 ratio
FTSKYSKYLDSRRAQDFVQWLMNT-NH2 [[Lys^9]Glucagon(aa6-29)-NH2]	1990 ratio
FTS[Aad]YSKYLDSRRAQDFVQWLMNT-NH2 (N-terminus assumed; SMILES CSCC[C@H](NC(=O)[C@H](CC(C)C)NC(=O)[C@H](Cc1c[nH]c2ccccc12)NC(=O)[C@H](CCC(N)=O)NC(=O)[C@@H](NC(=O)[C@H](Cc1ccccc1)NC(=O)[C@H](CC(=O)O)NC(=O)[C@H](CCC(N)=O)NC(=O)[C@H](C)NC(=O)[C@H](CCCNC(=N)N)NC(=O)[C@H](CCCNC(=N)N)NC(=O)[C@H](CO)NC(=O)[C@H](CC(=O)O)NC(=O)[C@H](CC(C)C)NC(=O)[C@H](Cc1ccc(O)cc1)NC(=O)[C@H](CCCCN)NC(=O)[C@H](CO)NC(=O)[C@H](Cc1ccc(O)cc1)NC(=O)[C@H](CCCC(=O)O)NC(=O)[C@H](CO)NC(=O)[C@@H](NC(=O)[C@@H](N)Cc1ccccc1)[C@@H](C)O)C(C)C)C(=O)N[C@@H](CC(N)=O)C(=O)N[C@H](C(N)=O)[C@@H](C)O) [[hGlu^9]Glucagon(aa6-29)-NH2]	2360 ratio

target: T1, human glucagon receptor; assay: cell-based or functional assay; remark: another data set of the same source

Molecule	IC50 (nM) (cAMP, inhibit 0.2 mM Glucagon)
[PhLac]TC(mPEG‑MAL 20 kDa)EYSKYLDSRRAQDFVQWLMNT-NH2 [[PLA6, C8(20kDaPEG), E9]Glucagon(aa6-29)-NH2]	236 nM and 92 nM
[PhLac]TSEYSKYLDSRRAQDFVC(m‑dPEG24‑MAL)WLMNT-NH2 [[PLA6, E9 ,C24(1.2 kDaPEG)]Glucagon(aa6-29) -NH2]	18 nM
[PhLac]TSEYC(mPEG‑MAL 20 kDa)KYLDSRRAQDFVQWLMNT-NH2 [[PLA6, E9, C11(20kDaPEG)]Glucagon(aa6-29)-NH2]	664 nM
[PhLac]TSEYSKYLDSRRAQDFVC(mPEG‑MAL 20 kDa)WLMNT-NH2 [[PLA6, E9, C24(20kDaPEG)]Glucagon(aa6-29)-NH2]	126 nM
C(1.2 kDa PEG)FTSEYSKYLDSRRAQDFVQWLMNT-NH2 [[C5(1.2kDaPEG), E9]Glucagon(aa5-29) -NH2]	2280 nM
C(5 kDa PEG)FTSEYSKYLDSRRAQDFVQWLMNT-NH2 [[C5(5kDaPEG), E9]Glucagon(aa5-29) -NH2]	1610 nM
C(20 kDa PEG)FTSEYSKYLDSRRAQDFVQWLMNT-NH2 [[C5(20kDaPEG), E9]Glucagon(aa5-29) -NH2]	976 nM
C(3.4 kDa PEG)FTSEYSKYLDSRRAQDFVQWLMNT-NH2 (also: dimer: the two Cys5 joined by 3.4 kDa PEG) [3.4kDaPEG-dimer[C5, E9]Glucagon(aa5-29) -NH2]	1340 nM
[PhLac]TC(mPEG‑MAL 5 kDa)EYSKYLDSRRAQDFVQWLMNT-NH2 [[PLA6, C8(5kDaPEG), E9]Glucagon(aa6-29) -NH2]	216 nM
